According to patent US20130315910A1 (Xencor, published 2013):
Positions count from the first letter of the chain named. Names may count otherwise.

T1: human FcγRIIa (131R), His- and GST-tagged (human, UniProt P12318 34-217)
T1 construct: Expressed in HEK293T cells, purified by nickel chromatography; also called R131 FcγRIIa; not shown: 6xHis and GST tags of the pTT5 vector
T1 sequence (looked up): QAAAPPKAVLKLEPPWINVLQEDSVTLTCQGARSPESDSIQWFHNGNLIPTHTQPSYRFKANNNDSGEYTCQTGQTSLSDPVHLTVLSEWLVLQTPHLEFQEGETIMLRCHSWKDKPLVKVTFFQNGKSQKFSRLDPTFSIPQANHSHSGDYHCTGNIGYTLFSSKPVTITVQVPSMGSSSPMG

T2: human FcγRIIb receptor protein (R&D Systems) (human, UniProt P31994 46-217)
T2 construct: Bought protein injected over captured antibody in Biacore; also called CD32b
T2 sequence (looked up): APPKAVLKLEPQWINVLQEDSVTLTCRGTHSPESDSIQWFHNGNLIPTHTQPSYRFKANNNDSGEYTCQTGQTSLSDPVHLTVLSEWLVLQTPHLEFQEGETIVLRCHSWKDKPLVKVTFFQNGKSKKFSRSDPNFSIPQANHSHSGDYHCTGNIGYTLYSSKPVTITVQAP

T3: cynoFcγRIIb (Macaca fascicularis, UniProt A0A140HDP4)
T3 construct: extracellular region, C-terminal His- and GST-tag; also called cynomolgus monkey FcγRIIb
T3 sequence (receptor extracellular region): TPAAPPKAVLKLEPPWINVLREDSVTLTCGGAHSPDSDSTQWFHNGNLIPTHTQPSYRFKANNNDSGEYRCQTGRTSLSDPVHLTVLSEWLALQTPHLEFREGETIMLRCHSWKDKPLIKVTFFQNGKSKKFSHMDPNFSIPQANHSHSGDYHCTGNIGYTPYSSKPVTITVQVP

T4: mFcγRIIb (Mus musculus, UniProt P08101)
T4 construct: extracellular region, C-terminal His- and GST-tag; also called mouse FcγRII
T4 sequence (receptor extracellular region, looked up): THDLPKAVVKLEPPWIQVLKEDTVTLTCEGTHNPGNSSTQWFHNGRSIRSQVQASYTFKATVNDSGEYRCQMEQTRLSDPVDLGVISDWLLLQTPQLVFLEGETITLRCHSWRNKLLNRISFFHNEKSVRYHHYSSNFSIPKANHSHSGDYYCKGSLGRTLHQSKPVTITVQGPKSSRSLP

B1: L234W/S239E/S267E (antibody, human IgG1, kappa)
heavy: EVQLVESGGGLVKPGGSLKLSCAASGYTFTSYVMHWVRQAPGKGLEWIGYINPYNDGTKYNEKFQGRVTISSDKSISTAYMELSSLRSEDTAMYYCARGTYYYGTRVFDYWGQGTLVTVSSASTKGPSVFPLAPSSKSTSGGTAALGCLVKDYFPEPVTVSWNSGALTSGVHTFPAVLQSSGLYSLSSVVTVPSSSLGTQTYICNVNHKPSNTKVDKKVEPKSCDKTHTCPPCPAPEWLGGPEVFLFPPKPKDTLMISRTPEVTCVVVDVEHEDPEVKFNWYVDGVEVHNAKTKPREEQYNSTYRVVSVLTVLHQDWLNGKEYKCKVSNKALPAPIEKTISKAKGQPREPQVYTLPPSREEMTKNQVSLTCLVKGFYPSDIAVEWESNGQPENNYKTTPPVLDSDGSFFLYSKLTVDKSRWQQGNVFSCSVMHEALHNHYTQKSLSLSPGK
light: DIVMTQSPATLSLSPGERATLSCRSSKSLQNVNGNTYLYWFQQKPGQSPQLLIYRMSNLNSGVPDRFSGSGSGTEFTLTISSLEPEDFAVYYCMQHLEYPITFGAGTKLEIKRTVAAPSVFIFPPSDEQLKSGTASVVCLLNNFYPREAKVQWKVDNALQSGNSQESVTEQDSKDSTYSLSSTLTLSKADYEKHKVYACEVTHQGLSSPVTKSFNRGEC
notes: HuAM4G7 anti-CD19 IgG1 (m1) with these Fc substitutions, EU index; copies: 2 + 2
B2: S239D/H268D/L328Y (antibody, human IgG1, kappa)
heavy: B1 heavy with W238L, E243D, E271S, H272D, L332Y
light: B1 light
notes: as for B1
B3: S239D/H268E/L328Y (antibody, human IgG1, kappa)
heavy: B1 heavy with W238L, E243D, E271S, H272E, L332Y
light: B1 light
notes: as for B1
B4: S298M (antibody, human IgG1, kappa)
heavy: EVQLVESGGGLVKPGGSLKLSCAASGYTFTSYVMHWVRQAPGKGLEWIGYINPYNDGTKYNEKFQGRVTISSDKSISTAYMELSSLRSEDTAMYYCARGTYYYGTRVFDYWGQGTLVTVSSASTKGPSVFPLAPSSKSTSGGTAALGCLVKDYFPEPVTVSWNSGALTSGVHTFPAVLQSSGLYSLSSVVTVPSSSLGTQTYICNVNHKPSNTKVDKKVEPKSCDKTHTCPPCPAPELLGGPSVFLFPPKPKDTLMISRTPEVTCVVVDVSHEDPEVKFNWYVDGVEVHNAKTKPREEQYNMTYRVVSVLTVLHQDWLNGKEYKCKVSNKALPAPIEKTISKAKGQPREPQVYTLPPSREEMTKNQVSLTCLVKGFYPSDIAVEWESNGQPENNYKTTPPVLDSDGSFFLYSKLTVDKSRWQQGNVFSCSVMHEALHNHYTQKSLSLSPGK
light: B1 light
notes: HuAM4G7 anti-CD19 IgG1 (m1) with this Fc substitution, EU index; copies: 2 + 2
B5: S239D/S267A/L328Y (antibody, human IgG1, kappa)
heavy: B1 heavy with W238L, E243D, E271A, L332Y
light: B1 light
notes: as for B1
B6: S239D/H268D/L328W/I332E (antibody, human IgG1, kappa)
heavy: B1 heavy with W238L, E243D, E271S, H272D, L332W, I336E
light: B1 light
notes: as for B1
B7: H268D/A327D/L328Y (antibody, human IgG1, kappa)
heavy: B1 heavy with W238L, E243S, E271S, H272D, A331D, L332Y
light: B1 light
notes: as for B1
B8: S298L (antibody, human IgG1, kappa)
heavy: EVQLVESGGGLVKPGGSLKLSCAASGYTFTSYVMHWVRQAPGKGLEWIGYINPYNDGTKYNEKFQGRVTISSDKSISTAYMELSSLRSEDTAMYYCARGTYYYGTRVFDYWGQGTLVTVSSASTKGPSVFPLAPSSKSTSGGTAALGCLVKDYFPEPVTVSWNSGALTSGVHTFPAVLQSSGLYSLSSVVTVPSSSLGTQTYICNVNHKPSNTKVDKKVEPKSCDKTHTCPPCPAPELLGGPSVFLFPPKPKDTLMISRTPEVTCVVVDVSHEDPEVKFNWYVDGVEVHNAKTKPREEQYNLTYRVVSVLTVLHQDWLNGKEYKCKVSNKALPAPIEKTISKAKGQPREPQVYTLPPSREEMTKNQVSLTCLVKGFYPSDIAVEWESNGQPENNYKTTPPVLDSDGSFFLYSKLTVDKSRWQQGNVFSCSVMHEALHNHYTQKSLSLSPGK
light: B1 light
notes: as for B4
B9: H268D/L328Y (antibody, human IgG1, kappa)
heavy: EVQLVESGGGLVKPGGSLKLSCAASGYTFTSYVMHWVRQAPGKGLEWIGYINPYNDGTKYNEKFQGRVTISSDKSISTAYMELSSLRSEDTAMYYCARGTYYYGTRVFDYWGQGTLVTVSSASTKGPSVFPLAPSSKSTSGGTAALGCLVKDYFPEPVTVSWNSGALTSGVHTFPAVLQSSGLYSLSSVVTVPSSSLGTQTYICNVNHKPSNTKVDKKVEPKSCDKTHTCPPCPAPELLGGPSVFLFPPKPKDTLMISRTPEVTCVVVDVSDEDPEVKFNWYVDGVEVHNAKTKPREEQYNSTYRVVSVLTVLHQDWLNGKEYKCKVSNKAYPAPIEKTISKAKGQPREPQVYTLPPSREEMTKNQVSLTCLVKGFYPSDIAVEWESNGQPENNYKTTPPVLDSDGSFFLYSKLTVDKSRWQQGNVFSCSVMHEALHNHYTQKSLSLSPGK
light: B1 light
notes: as for B1
B10: S239D/S267E/I332E (antibody, human IgG1, kappa)
heavy: B1 heavy with W238L, E243D, I336E
light: B1 light
notes: as for B1
B11: S239D/K326D/L328Y (antibody, human IgG1, kappa)
heavy: B1 heavy with W238L, E243D, E271S, K330D, L332Y
light: B1 light
notes: as for B1
B12: S239D/L328Y/I332E (antibody, human IgG1, kappa)
heavy: B1 heavy with W238L, E243D, E271S, L332Y, I336E
light: B1 light
notes: as for B1
B13: S239D/H268D/L328Y/I332E (antibody, human IgG1, kappa)
heavy: B1 heavy with W238L, E243D, E271S, H272D, L332Y, I336E
light: B1 light
notes: as for B1
B14: S239D/L328F/I332E (antibody, human IgG1, kappa)
heavy: B1 heavy with W238L, E243D, E271S, L332F, I336E
light: B1 light
notes: as for B1
B15: S239D/H268D/L328W (antibody, human IgG1, kappa)
heavy: B1 heavy with W238L, E243D, E271S, H272D, L332W
light: B1 light
notes: as for B1
B16: H268D/L328W/I332E (antibody, human IgG1, kappa)
heavy: B1 heavy with W238L, E243S, E271S, H272D, L332W, I336E
light: B1 light
notes: as for B1
B17: S239D/L328Y (antibody, human IgG1, kappa)
heavy: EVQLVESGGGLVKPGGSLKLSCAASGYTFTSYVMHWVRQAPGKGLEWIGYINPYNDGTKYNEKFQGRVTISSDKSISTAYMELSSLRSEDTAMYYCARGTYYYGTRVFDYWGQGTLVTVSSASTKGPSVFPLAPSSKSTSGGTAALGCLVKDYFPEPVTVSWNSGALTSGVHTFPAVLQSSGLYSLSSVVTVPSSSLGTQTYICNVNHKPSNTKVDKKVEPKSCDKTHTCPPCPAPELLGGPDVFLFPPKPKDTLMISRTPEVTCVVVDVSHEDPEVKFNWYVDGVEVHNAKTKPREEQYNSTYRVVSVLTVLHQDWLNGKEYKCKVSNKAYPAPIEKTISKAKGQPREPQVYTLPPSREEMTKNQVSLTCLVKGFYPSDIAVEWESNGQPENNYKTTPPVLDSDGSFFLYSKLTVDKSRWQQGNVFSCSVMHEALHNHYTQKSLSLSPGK
light: B1 light
notes: as for B1
B18: L234W/H268D/L328Y (antibody, human IgG1, kappa)
heavy: B1 heavy with E243S, E271S, H272D, L332Y
light: B1 light
notes: as for B1

Molecular target: T1, human FcγRIIa (131R), His- and …
Assay: SPR

Row | Fold vs WT IgG1 [fold] | Kd [nM] | Binder
1 | 98.5 | 8.72 | B1

Molecular target: T2, human FcγRIIb receptor protein (R&D …)
Assay: SPR

Row | Fold vs WT IgG1 [fold] | Kd [nM] | binding result | Binder
2 | 42.3 | 34.7 | – | B1
3 | 24.4 | 60.1 | – | B2
4 | 21.7 | 67.7 | – | B3
5 | – | – | no binding | B4
6 | 19.8 | 74.1 | – | B5
7 | 27.8 | 52.7 | – | B6
8 | 3.49 | 420 | – | B7
9 | – | – | no binding | B8
10 | 1.91 | 767 | – | B9
11 | 124 | 11.8 | – | B10
12 | 13 | 113 | – | B11
13 | 7.41 | 198 | – | B12
14 | 54.1 | 27.1 | – | B13
15 | 8.34 | 176 | – | B14
16 | 51.1 | 28.7 | – | B15
17 | 39.8 | 36.9 | – | B16
18 | 5.56 | 264 | – | B17
19 | 5.92 | 248 | – | B18

Molecular target: T3, cynoFcγRIIb
Assay: SPR

Row | Fold vs WT IgG1 (Kd) [fold] | Binder
20 | 2.25 | B1
21 | 22.2 | B2
22 | 5.87 | B3
23 | 2.85 | B4
24 | 6.46 | B5
25 | 4.55 | B6
26 | 3.58 | B7
27 | 0.04 | B8
28 | 2.92 | B9
29 | 10 | B10
30 | 10.2 | B11
31 | 5.12 | B12
32 | 9.1 | B13
33 | 3.09 | B14
34 | 23.7 | B15
35 | 7.46 | B16
36 | 2.13 | B17
37 | 4.63 | B18

Molecular target: T4, mFcγRIIb
Assay: SPR

Row | Fold vs WT IgG1 (Kd) [fold] | Binder
38 | 0.761 | B1
39 | 48.6 | B2
40 | 26.5 | B3
41 | 0.549 | B4
42 | 46.5 | B5
43 | 4.81 | B6
44 | 18.7 | B7
45 | 0.208 | B8
46 | 2.79 | B9
47 | 1 | B10
48 | 131 | B11
49 | 1.7 | B12
50 | 3.04 | B13
51 | 2.09 | B14
52 | 47.8 | B15
53 | 4.26 | B16
54 | 11.5 | B17
55 | 5.92 | B18
